Test results reported in patent US20230220399.
Like-named read-outs stand apart in the source and are kept apart here.

Columns and labels:
KRAS G12D G12D, P01116-2 [1] = conditions: ELISA, SB18, 37 C
[2] = molecular target: transferrin (TF) (Homo sapiens) (UniProt P02787); conditions: ELISA, SB18, 37 C
KRAS G12D G12D, P01116-2 [3] = conditions: Nap-dU at n (6) positions; ELISA, SB18, 37 C
[4] = molecular target: transferrin (TF) (Homo sapiens) (UniProt P02787); conditions: Nap-dU at n (6) positions; ELISA, SB18, 37 C
[5] = molecular target: human serum albumin (HSA) (Homo sapiens) (UniProt P02768); conditions: ELISA, SB18, 37 C
KRAS G12C G12C, P01116-2 = conditions: Nap-dU at n (6) positions [4,9,13,19,26,27,28,30,39]; ELISA, SB18, 37 C; text p364 misprints unit/protein
KRAS G12D G12D, P01116-2 [6] = test: BLI; conditions: Nap-dU at n (6) positions [4,9,13,19,26,27,28,30,39]; SB18, 37 C, immobilised biotin ligand
KRAS G12V G12V, P01116-2 = conditions: Nap-dU at n (6) positions [28,30,39,40,41,45,46,47,54,57]; ELISA, SB18, 37 C
[7] = molecular target: CD3 delta/epsilon heterodimer (UniProt P04234+P07766); conditions: Nap-dU at n (6) positions [Nap-dU at 1,6,7,8,9,12,18,19,20,23,32]; ELISA, SB18, 37 C
Sequence of CD3 delta/epsilon heterodimer (P04234 22-105, stated change not applied, chain 1 of 2): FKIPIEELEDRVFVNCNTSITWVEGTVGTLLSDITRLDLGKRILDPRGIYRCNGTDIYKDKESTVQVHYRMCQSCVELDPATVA
Sequence of CD3 delta/epsilon heterodimer (P07766 23-126, stated change not applied, chain 2 of 2): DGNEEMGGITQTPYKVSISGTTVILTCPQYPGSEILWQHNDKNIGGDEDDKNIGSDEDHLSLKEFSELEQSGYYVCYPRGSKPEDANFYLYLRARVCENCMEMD

[8] = Nap-dU at n (6) positions [17,23,30,31,32,44]
[9] = Nap-dU at n (6) positions [Nap-dU at 2,6,8,9,11,16,17,22,24,27,35]
[10] = Nap-dU at n (6) positions [4,9,13,19,26,27,28,30,39]
[11] = Nap-dU at n (6) positions [22,28,35,36,37,49]
[12] = Nap-dU at n (6) positions [5,10,14,20,27,28,29,31,40]

Sequence of transferrin (TF) (Homo sapiens) (P02787 20-698): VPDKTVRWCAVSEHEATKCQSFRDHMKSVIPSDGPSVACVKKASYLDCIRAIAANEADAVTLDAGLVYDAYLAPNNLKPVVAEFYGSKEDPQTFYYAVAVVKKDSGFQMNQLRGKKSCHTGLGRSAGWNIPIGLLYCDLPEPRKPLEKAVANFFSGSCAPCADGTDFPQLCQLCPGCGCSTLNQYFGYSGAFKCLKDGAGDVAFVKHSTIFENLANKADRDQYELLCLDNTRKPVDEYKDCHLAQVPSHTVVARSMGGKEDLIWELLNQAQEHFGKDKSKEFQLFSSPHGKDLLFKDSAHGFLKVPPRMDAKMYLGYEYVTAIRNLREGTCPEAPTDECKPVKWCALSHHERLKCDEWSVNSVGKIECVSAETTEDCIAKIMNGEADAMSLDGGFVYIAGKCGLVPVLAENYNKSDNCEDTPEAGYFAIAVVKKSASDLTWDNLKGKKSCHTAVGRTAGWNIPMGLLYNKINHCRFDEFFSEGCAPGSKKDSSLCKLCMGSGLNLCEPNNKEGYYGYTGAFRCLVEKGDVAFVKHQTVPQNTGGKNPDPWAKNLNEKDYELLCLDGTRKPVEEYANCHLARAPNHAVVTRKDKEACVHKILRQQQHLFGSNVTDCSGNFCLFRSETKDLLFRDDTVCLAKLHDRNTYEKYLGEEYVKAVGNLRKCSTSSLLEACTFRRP

Work on “ACCGTCTGCCTGAAAGTCCGGATGGCAGCTTTACAGGCAGAACTAACG [TD007]” yielded a Kd (KRAS G12D G12D, P01116-2 [1]; [8]) of 2120 nM and a Kd [2, 8] of 431 nM.
In the case of “ATGCCTCTTCTGCAGTTACGGTGTGATCGCCCAATAGCAGCCAC [TD012]”, the Kd (KRAS G12D G12D, P01116-2 [1]; [9]) is reported as 1310 nM and the Kd [2, 9] is reported as 14.9 nM.
Sequence “CAGGNCGAGCNGNACGCGNGNGNGACCNGAAGAC [TD013]” has a Kd (KRAS G12D G12D, P01116-2 [3]) of 1550 nM and a Kd [4] of 646 nM.
With “GACTAGCATAAGTCCGGATGGCAGCTTTATGCCGACCAT [AD005]” the Kd [5, 10] was 122 nM, the Kd (KRAS G12D G12D, P01116-2 [1]; [10]) was 22.9 nM and the Kd (KRAS G12C G12C, P01116-2) was 2.5 nM. For the same sequence, the Kd (KRAS G12D G12D, P01116-2 [6]) was 35.5 nM.
“GAGTGACCGTCTGCCTGAAAGTCCGGATGGCAGCTTTACAGGCAGAACTAACG [TD006]” showed a Kd (KRAS G12D G12D, P01116-2 [1]; [11]) of 628 nM and a Kd [2, 11] of 968 nM.
“GAGTGACCGTCTGCCTGAGCAGGAGGATGTGACACAACTTTGCATTTCAAGCCTGATCAGCCACACCACCAGCC [AV001]” gave a Kd (KRAS G12V G12V, P01116-2) of 58 nM and a Kd ([5]; Nap-dU at n (6) positions [28,30,39,40,41,45,46,47,54,57]) of 11.2 nM.
Work on “GGACTAGCATAAGTCCGGATGGCAGCTTTATGCCGACCAT [TD003]” yielded a Kd (KRAS G12D G12D, P01116-2 [1]; [12]) of 2720 nM and a Kd [2, 12] of 141 nM.
Sequence “TGCCCTTTTAATCCGACTTTAATGGCCACGCTCAC [AA004]” has a Kd ([5]; Nap-dU at n (6) positions [Nap-dU at 1,6,7,8,9,12,18,19,20,23,32]) of 9.54 nM and a Kd [7] of 10.2 nM.
